Data taken from the Immune Epitope Database (IEDB).
Values belong to the sequence of their own block, whether it stands above or below them.

Columns and labels:
[1] = biological target: HLA-B*48:01; experiment: IEDB peptide-MHC binding, purified MHC/competitive/fluorescence; filed as Kd, often an IC50 or EC50 that approximates it; ≥ and ≤ were set here for values at or beyond the usual limits of such assays
[2] = biological target: HLA-A*02:01; experiment: IEDB peptide-MHC binding, purified MHC/competitive/radioactivity; ≥ and ≤ were set here for values at or beyond the usual limits of such assays; details: source organism: Homo sapiens
[3] = biological target: HLA-A*02:01; experiment: IEDB peptide-MHC binding, purified MHC/competitive/fluorescence; filed as Kd, often an IC50 or EC50 that approximates it; ≥ and ≤ were set here for values at or beyond the usual limits of such assays; details: source organism: Yersinia pestis Nepal516
[4] = biological target: HLA-B*39:01; experiment: as above; details: source organism: Yersinia pestis Nepal516
[5] = biological target: HLA-B*40:01; experiment: as above
[6] = biological target: HLA-A*01:01; experiment: IEDB peptide-MHC binding, purified MHC/direct/fluorescence; filed as Kd, often an IC50 or EC50 that approximates it; ≥ and ≤ were set here for values at or beyond the usual limits of such assays
[7] = biological target: HLA-A*02:01; experiment: as above
[8] = biological target: HLA-A*03:01; experiment: as above
[9] = biological target: HLA-A*11:01; experiment: as above
[10] = biological target: HLA-A*26:01; experiment: as above
[11] = biological target: HLA-A*30:01; experiment: as above; details: source organism: Escherichia coli
[12] = biological target: HLA-A*31:01; experiment: as above
[13] = biological target: HLA-A*69:01; experiment: as above
[14] = biological target: HLA-B*07:02; experiment: as above
[15] = biological target: HLA-B*08:01; experiment: as above
[16] = biological target: HLA-B*15:01; experiment: as above
[17] = biological target: HLA-B*27:05; experiment: as above
[18] = biological target: HLA-B*35:01; experiment: as above
[19] = biological target: HLA-B*40:01; experiment: as above
[20] = biological target: HLA-B*44:02; experiment: as above
[21] = biological target: HLA-B*58:01; experiment: as above
[22] = biological target: HLA-A*24:02; experiment: as above; details: source organism: Giardia lamblia ATCC 50803
[23] = biological target: HLA-B*08:02; experiment: as above; details: source organism: Giardia lamblia ATCC 50803
[24] = biological target: HLA-B*18:01; experiment: as above; details: source organism: Giardia lamblia ATCC 50803
[25] = biological target: HLA-B*46:01; experiment: as above; details: source organism: Giardia lamblia ATCC 50803
[26] = biological target: HLA-C*05:01; experiment: as above; details: source organism: Mycobacterium tuberculosis variant bovis
[27] = biological target: HLA-C*12:03; experiment: as above; details: source organism: Mycobacterium tuberculosis variant bovis
[28] = biological target: HLA-C*15:02; experiment: as above; details: source organism: Mycobacterium tuberculosis variant bovis
[29] = biological target: HLA-B*27:05; experiment: IEDB peptide-MHC binding, purified MHC/competitive/fluorescence; filed as Kd, often an IC50 or EC50 that approximates it; ≥ and ≤ were set here for values at or beyond the usual limits of such assays; details: source organism: Mammarenavirus juninense
[30] = source organism: Escherichia coli
[31] = source organism: Shigella dysenteriae
[32] = source organism: Giardia lamblia ATCC 50803
[33] = source organism: Vibrio parahaemolyticus

Sequence: RQGKPDWLL
Kd ([1]; source organism: Vibrio vulnificus CMCP6): 0.124 µM

Sequence: RQWFIDVPL
Kd ([1]; source organism: dengue virus type 2): 0.0684 µM

IC50 [2]: 0.04 µM
Sequence: RTLDKVLEV

Sequence: TQFGVPFVL
Kd [3]: 0.0135 µM
Kd [4]: 0.0003 µM
Kd ([5]; source organism: Yersinia pestis Nepal516): 0.205 µM

Sequence: TTFPVNGGY
Kd [6, 30]: 0.345 µM
Kd [7, 31]: ≥ 20 µM
Kd [8, 30]: 1.46 µM
Kd [9, 30]: 5.77 µM
Kd [10, 30]: 0.0228 µM
Kd [11]: 16 µM
Kd [12, 31]: ≥ 20 µM
Kd [13, 30]: 0.334 µM
Kd [14, 31]: ≥ 20 µM
Kd [15, 31]: ≥ 20 µM
Kd [16, 30]: 0.165 µM
Kd [17, 31]: ≥ 20 µM
Kd [18, 30]: 0.097 µM
Kd [19, 31]: ≥ 20 µM
Kd [20, 31]: ≥ 20 µM
Kd [21, 30]: ≥ 10 µM

Sequence: VESKNFADF
Kd ([5]; source organism: Bacillus cereus G9241): 0.418 µM

Sequence: VSSKKCTAL
Kd [6, 32]: ≥ 20 µM
Kd [7, 32]: ≥ 20 µM
Kd [8, 32]: ≥ 20 µM
Kd [9, 32]: ≥ 20 µM
Kd [22]: ≥ 20 µM
Kd [10, 32]: ≥ 20 µM
Kd [12, 32]: ≥ 20 µM
Kd [13, 32]: ≥ 20 µM
Kd [14, 32]: ≥ 20 µM
Kd [15, 32]: 17.7 µM
Kd [23]: ≥ 20 µM
Kd [16, 32]: ≥ 20 µM
Kd [24]: ≥ 20 µM
Kd [17, 32]: ≥ 20 µM
Kd [19, 32]: ≥ 20 µM
Kd [20, 32]: ≥ 20 µM
Kd [25]: ≥ 20 µM
Kd [21, 32]: ≥ 20 µM

Sequence: VTNDGVIFF
Kd ([10]; source organism: Mycobacterium tuberculosis variant bovis): 1.09 µM
Kd [26]: 0.003 µM
Kd [27]: 0.319 µM
Kd [28]: ≥ 20 µM

Sequence: YPKCDLVEL
Kd [6, 33]: ≥ 20 µM
Kd [7, 33]: ≥ 20 µM
Kd [8, 33]: ≥ 20 µM
Kd [9, 33]: ≥ 20 µM
Kd [10, 33]: ≥ 20 µM
Kd [12, 33]: ≥ 20 µM
Kd [13, 33]: 0.177 µM
Kd [14, 33]: 0.224 µM
Kd [15, 33]: 0.54 µM
Kd [16, 33]: ≥ 20 µM
Kd [17, 33]: ≥ 20 µM
Kd [18, 33]: 0.00816 µM
Kd [19, 33]: ≥ 20 µM
Kd [20, 33]: ≥ 20 µM
Kd [21, 33]: ≥ 20 µM

Sequence: YRWVNLASF
Kd [29]: 0.0981 µM
